Experimental data as given in US20070128190A1 (GLENMARK PHARMACEUTICALS S A, published 2007).

Columns and labels:
[1] = target: T1, GST-human α2 I domain fusion protein (human, UniProt P17301 153-368); test: SPR (Biacore 2000), antibody captured, GST-α2 I domain in solution; second Human row; second Human row of humanized TMC-2206
T1 construct: the reverse primer ends at ...SIEGTV; also called GST-α2 I domain; hα2I; not shown: glutathione S-transferase tag encoded by vector pGEX-2TK
T1 sequence: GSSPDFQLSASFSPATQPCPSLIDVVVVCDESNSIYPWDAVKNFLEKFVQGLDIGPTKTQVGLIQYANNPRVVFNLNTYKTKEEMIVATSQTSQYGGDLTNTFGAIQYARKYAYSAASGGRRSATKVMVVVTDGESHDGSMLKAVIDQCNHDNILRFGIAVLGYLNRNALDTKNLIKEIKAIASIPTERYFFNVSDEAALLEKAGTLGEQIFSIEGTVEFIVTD
Description: SPR, a method for characterizing macromolecular interactions, is an optical technique that uses the […] phenomenon to exquisitely measure minute changes in refractive index very close to a sensor surface. The binding between an antigen in solution (e.g., fusion protein) and its MAb receptor (immobilized on the surface of a sensor chip) results in a change in refractive index. The interaction is monitored in real time and the amount of bound antigen and the association and dissociation rate constants can be measured with high precision. The equilibrium dissociation constant can be easily calculated from: KD=kd/kₐ=koff/kₒₙ. The cloning of the human α2 I domain and the purification of the expressed GST-human α2 I domain fusion protein was described in Example 12. Analyses were performed at 20° C. using a Biacore 2000 optical sensor with a research-grade CM5 sensor chip (Biacore Life Sciences, Uppsala, Sweden) and equilibrated with running buffer (50 mM HEPES, 150 mM NaCl, 0.25 mM MgCl₂, 0.25 mM CaCl₂, 0.5% Tween-20, 0.1 mg/ml BSA, pH 7.4). […] Each cycle of antigen (GST-human-α2 I domain fusion protein) binding to surface-tethered anti-mouse IgGs involved three steps. […] [The other two surfaces (one anti-mouse and one Protein A) served as analytic references.] In the second step, GST-human-α2 I domain fusion protein was injected across the four surfaces. Responses obtained from the reference surfaces (due to refractive index mismatches between the antigen and running buffer) were subtracted from the responses obtained from the reaction surfaces. In the third step, the antigen/antibody complexes were stripped from the surfaces such that the surfaces could be used for another binding cycle.

[2] = target: human α1β1 integrin (immobilized) (human, UniProt P56199 29-1179; P05556 21-798, limits assumed); test: ELISA on immobilized human α1β1
Protocol: Human α1β1 integrin (Chemicon International) was diluted in Coating Buffer (25 mM Tris, pH 7.5, 150 mM NaCl, 1 mM MgCl₂) to a final concentration of 0.5 μg/ml. 96-well immunoplates were coated with α1β1 at 50 ng/well and incubated overnight at 4° C. The plates were washed three times with Wash Buffer (50 mM Tris, pH 7.5, 150 mM NaCl, 2 mM MgCl₂, 0.5% Tween-20) and blocked with 5% w/v/skim milk in Wash Buffer for one hour at room temperature. […] Fifty microliters/well of the diluted antibody solutions were added to the α1β1-coated plates, incubated for one hour at room temperature, and then washed three times. […] After a one-hour incubation at room temperature, the plates were washed three times, incubated in substrate solution (1 mg/ml 4-nitrophenyl phosphate, 0.1 M diethanolamine, 5 mM MgCl₂, pH 9.8) for 20 minutes, and terminated with NaOH. The absorbance (405 nm) was read using a Spectramax Plus plate reader using Softmax Pro software. […] The control anti-α1β1 antibody (FB-12) bound to α1β1 with an EC₅₀ of 0.79±0.15 nM.

GST = target: T2, GST (UniProt P08515 1-218 = GST); test: GST competing Eu-humanized TMC-2206 off α2β1-coated plate
T2 construct: also called GST fusion protein (negative control)

[3] = target: T1, GST-human α2 I domain fusion protein; test: ELISA, GST fusion protein on immobilized TMC-2206 (Kd apparent)
Protocol: (§1) The fusion proteins were then expressed and purified as described above for the human GST-α2 I domain fusion protein. […] Therefore, these and the primate fusion proteins were further purified by size exclusion chromatography on a Sephadex 75 10/30 (GE-Amersham) column (primate) by FPLC on an Akta-Basic FPLC system (GE-Amersham) to yield a monomeric fraction. […] The Kᵢ assays were performed as described above in Example 2. […] Plates were sealed and coating occurred overnight at 4° C. The next morning, the plates were washed twice with TBS solution and then blocked using 200 μL of the blocking solution described above for 1 hour at room temperature with shaking. After blocking, the blocking solution was removed but the wells were not washed. Instead, a serial dilution of GST fusion protein was made, added to the wells and then incubated for 2 hours at room temperature with shaking. The wells were then aspirated and a TBS washing buffer applied for 5 minutes at room temperature. The washing step was repeated twice more before the secondary antibody was applied. The secondary antibody step consisted of Amersham's HRP-conjugated rabbit anti-GST antibody diluted 1:2000 in blocking buffer. One hundred μL of secondary antibody was added to each well and incubated at room temperature for 1.5 hours with shaking. The wells were again aspirated and washed three times with wash buffer before adding the substrate reaction mixture. One hundred μL of substrate reaction mixture (1:1 dilution of TMB kit) was then added to each well for 6 minutes. The reaction was stopped by adding 100 μL of 0.1M H₂SO₄. The reaction within the wells was then read and quantified by spectrophotometric absorption using the Molecular Dynamics plate reader and associated Softmax software, respectively. Kd values were then estimated from the EC₅₀ values using Prism software (Graphpad, Calif.).

GST-hα2 I domain K78E = target: T3, GST-hα2 I domain K78E (human, UniProt P08515 1-218 = GST); test: as above
T3 construct: same construct as m41
Protocol: as §1

[4] = target: human α2β1 integrin on human cells (platelets, leukocytes, HT1080) (human, UniProt P17301 30-1181; P05556 21-798); test: cell-based or functional assay
Chain of human α2β1 integrin on human cells (platelets, leukocytes, HT1080) (P17301 30-1181 E534K limits assumed, chain 1 of 2): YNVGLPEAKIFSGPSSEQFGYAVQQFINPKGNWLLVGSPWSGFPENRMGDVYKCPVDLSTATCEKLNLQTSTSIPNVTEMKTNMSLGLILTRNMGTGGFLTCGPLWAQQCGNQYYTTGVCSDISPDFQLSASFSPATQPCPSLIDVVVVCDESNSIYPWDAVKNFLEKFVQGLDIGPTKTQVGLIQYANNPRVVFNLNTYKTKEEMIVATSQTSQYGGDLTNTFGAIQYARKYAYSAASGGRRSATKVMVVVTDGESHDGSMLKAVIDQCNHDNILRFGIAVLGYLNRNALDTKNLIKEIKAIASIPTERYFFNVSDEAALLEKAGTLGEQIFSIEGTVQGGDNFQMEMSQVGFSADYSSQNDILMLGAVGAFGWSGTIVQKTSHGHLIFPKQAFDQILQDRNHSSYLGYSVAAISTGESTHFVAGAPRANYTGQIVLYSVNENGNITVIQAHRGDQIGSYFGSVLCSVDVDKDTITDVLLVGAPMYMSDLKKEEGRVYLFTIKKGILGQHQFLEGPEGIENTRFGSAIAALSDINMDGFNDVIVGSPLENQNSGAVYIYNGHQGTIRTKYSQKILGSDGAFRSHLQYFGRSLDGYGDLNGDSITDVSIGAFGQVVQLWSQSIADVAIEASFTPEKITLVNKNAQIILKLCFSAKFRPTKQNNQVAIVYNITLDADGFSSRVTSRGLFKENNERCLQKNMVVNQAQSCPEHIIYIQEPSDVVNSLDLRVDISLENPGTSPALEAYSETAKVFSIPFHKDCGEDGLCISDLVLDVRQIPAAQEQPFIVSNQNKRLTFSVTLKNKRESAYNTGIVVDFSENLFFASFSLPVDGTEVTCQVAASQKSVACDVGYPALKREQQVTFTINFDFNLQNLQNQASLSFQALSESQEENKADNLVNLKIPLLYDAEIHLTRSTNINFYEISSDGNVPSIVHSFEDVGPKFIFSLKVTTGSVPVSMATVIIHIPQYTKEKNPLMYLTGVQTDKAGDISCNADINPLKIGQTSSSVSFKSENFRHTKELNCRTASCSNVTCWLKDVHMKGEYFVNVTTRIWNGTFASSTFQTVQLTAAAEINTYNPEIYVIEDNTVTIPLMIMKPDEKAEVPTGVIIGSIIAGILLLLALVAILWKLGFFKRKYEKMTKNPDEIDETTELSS
Chain of human α2β1 integrin on human cells (platelets, leukocytes, HT1080) (P05556 21-798 limits assumed, chain 2 of 2): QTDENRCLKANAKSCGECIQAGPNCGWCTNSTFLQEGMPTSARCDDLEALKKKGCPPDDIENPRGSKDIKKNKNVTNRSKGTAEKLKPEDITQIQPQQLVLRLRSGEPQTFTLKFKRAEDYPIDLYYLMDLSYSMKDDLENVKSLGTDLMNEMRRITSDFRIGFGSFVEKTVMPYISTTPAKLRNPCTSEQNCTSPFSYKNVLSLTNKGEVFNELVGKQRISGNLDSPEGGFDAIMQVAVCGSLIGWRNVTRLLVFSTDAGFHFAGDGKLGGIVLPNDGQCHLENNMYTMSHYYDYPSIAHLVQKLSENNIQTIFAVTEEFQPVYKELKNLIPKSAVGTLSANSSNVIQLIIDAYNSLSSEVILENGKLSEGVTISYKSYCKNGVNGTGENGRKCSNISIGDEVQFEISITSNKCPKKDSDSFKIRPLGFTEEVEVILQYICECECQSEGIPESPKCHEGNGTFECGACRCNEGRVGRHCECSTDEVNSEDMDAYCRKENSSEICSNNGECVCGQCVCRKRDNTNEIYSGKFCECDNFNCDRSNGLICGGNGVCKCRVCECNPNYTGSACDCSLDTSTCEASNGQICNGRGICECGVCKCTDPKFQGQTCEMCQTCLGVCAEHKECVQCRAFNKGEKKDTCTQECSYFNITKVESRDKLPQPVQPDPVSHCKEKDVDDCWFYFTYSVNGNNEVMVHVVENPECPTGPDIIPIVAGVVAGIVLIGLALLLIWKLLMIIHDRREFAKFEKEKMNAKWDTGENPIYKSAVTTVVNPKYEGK

T2 sequence (P08515 whole entry, the tested form may be a part): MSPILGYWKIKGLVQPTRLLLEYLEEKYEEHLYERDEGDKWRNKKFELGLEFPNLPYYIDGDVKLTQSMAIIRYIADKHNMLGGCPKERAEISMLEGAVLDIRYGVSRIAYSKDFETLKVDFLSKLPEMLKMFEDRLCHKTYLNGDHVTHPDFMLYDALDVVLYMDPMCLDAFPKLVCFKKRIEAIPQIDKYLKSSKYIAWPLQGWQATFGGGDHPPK
Chain of human α1β1 integrin (immobilized) (P56199 29-1179 limits assumed, chain 1 of 2): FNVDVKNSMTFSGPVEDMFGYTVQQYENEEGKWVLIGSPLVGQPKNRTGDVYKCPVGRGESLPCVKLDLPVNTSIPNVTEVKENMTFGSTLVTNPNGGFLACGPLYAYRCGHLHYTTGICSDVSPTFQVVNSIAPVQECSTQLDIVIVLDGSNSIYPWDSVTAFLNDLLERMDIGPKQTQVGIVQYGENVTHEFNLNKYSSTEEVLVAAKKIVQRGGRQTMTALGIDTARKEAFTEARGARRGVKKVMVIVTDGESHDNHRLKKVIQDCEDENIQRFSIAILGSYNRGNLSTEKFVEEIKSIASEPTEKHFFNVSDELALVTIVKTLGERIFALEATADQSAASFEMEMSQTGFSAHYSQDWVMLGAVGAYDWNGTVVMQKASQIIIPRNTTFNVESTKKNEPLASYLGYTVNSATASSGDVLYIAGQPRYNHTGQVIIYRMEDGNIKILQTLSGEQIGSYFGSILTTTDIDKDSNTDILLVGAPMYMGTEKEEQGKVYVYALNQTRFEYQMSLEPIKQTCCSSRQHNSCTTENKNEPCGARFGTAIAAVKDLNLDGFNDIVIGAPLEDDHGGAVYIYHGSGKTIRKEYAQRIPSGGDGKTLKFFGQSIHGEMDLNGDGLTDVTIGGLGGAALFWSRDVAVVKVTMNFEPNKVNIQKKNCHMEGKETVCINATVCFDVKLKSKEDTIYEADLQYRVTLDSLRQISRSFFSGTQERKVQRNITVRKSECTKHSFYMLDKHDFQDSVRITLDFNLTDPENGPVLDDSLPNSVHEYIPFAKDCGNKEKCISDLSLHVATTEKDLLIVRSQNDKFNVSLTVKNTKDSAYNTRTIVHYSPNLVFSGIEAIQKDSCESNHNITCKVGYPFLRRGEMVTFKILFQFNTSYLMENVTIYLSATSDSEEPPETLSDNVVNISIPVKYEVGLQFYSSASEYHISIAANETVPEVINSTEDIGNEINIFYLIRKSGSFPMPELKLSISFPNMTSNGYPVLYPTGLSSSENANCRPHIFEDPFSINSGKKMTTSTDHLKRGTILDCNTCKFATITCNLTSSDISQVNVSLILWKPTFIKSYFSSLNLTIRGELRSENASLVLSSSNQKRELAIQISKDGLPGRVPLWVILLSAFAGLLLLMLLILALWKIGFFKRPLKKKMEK
Chain of human α1β1 integrin (immobilized) (P05556 21-798 limits assumed, chain 2 of 2): as the sequence (P05556 21-798 limits assumed, chain 2 of 2) above

B1: Humanized TMC-2206 (hIgG4/κ VH12.0/VL10.0Q) (antibody)
heavy: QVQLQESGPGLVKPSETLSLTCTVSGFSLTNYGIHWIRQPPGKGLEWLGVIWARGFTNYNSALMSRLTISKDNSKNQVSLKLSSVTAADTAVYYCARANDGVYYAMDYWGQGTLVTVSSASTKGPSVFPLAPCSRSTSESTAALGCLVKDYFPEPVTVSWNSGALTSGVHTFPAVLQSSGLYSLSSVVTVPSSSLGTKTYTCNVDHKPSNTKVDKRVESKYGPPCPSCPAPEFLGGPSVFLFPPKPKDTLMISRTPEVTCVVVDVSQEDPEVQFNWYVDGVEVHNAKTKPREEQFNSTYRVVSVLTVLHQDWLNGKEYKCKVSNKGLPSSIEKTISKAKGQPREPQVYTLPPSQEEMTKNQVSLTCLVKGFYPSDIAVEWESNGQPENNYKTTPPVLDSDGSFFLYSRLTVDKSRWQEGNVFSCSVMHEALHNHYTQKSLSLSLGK
light: DFVMTQSPAFLSVTPGEKVTITCSAQSSVNYIHWYQQKPDQAPKKLIYDTSKLASGVPSRFSGSGSGTDYTFTISSLEAEDAATYYCQQWTTNPLTFGQGTKVEIKRTVAAPSVFIFPPSDEQLKSGTASVVCLLNNFYPREAKVQWKVDNALQSGNSQESVTEQDSKDSTYSLSSTLTLSKADYEKHKVYACEVTHQGLSSPVTKSFNRGEC
notes: labelled with Eu or Alexa-488 in some assays
- Kd [1]: 4 nM
- koff [1]: 0.0024 s⁻¹
- kon [1]: 580000 M⁻¹ s⁻¹
- binding result [2]: no binding
- binding result (GST): no binding (tested: 0.4 µM)

B2: TMC-2206 (antibody, mouse IgG1, V domains shown)
VH: QVQLKESGPGLVAPSQSLSITCTVSGFSLTNYGIHWVRQPPGKGLEWLGVIWARGFTNYNSALMSRLIITKDNSQSQVFLKMNSLQPDDSATYFCARANDGVYYAMDYWGQGTSVTVSS
VL: QFVLTQSPAFLSASPGEKVTMTCSANSSVNYIHWYQQKSGTSPKKWIYDTSKLASGVPVRFSGSGSGTSYSLTISSMETEDAATYYCQQWTTNPLTFGAGTRVELK
notes: murine IgG1/κ secreted by hybridoma BHA2.1; labelled with Eu-N1-ITC where used as tracer; also called BHA2.1
- Kd [3]: 0.31 nM
- Kd (GST-hα2 I domain K78E): 0.16 nM
- EC50 (nM), human platelet adhesion to human collagen Type I, ADP 0 µM [4]: 1.7 nM
- EC50 (nM), human platelet adhesion to human collagen Type I, ADP 20 µM [4]: 9.5 nM
- EC50 (nM), human platelet adhesion to human collagen Type II, ADP 0 µM [4]: 1.9 nM
- EC50 (nM), human platelet adhesion to human collagen Type II, ADP 20 µM [4]: 27 nM
- EC50 (nM), human platelet adhesion to human collagen Type III, ADP 0 µM [4]: 1.6 nM
- EC50 (nM), human platelet adhesion to human collagen Type III, ADP 20 µM [4]: 11 nM
- EC50 (nM), human platelet adhesion to human collagen Type IV, ADP 0 µM [4]: 10 nM
- EC50 (nM), human platelet adhesion to human collagen Type IV, ADP 20 µM [4]: > 1000 nM
- EC50 (nM), human platelet adhesion to human collagen Type VI, ADP 0 µM [4]: 2.3 nM
- EC50 (nM), human platelet adhesion to human collagen Type VI, ADP 20 µM [4]: 23 nM
